{"source": "the supplement of paper PMC11246515", "assay": "total protein half-life in vivo (active degradation + dilution); higher = more stable protein", "key": {"[1]": {"conditions": "E. coli NCM3722 delta-clpP delta-lon delta-hslV, growth: N-lim chemostat, doubling time 6 h"}, "[2]": {"conditions": "E. coli NCM3722 delta-clpP, growth: N-lim chemostat, doubling time 6 h"}, "[3]": {"conditions": "E. coli NCM3722 delta-hslV, growth: N-lim chemostat, doubling time 6 h"}, "[4]": {"conditions": "E. coli NCM3722 delta-lon, growth: N-lim chemostat, doubling time 6 h"}, "[5]": {"conditions": "E. coli NCM3722 delta-smpB, growth: N-lim chemostat, doubling time 6 h"}, "[6]": {"conditions": "wild type E. coli NCM3722, growth: C-lim chemostat, doubling time 3 h"}, "[7]": {"conditions": "wild type E. coli NCM3722, growth: C-lim chemostat, doubling time 6 h"}, "[8]": {"conditions": "wild type E. coli NCM3722, growth: C-lim chemostat, doubling time 12 h"}, "[9]": {"conditions": "wild type E. coli NCM3722, growth: N-lim chemostat, doubling time 6 h"}, "[10]": {"conditions": "wild type E. coli NCM3722, growth: N-lim chemostat, doubling time 12 h"}, "[11]": {"conditions": "wild type E. coli NCM3722, growth: P-lim chemostat, doubling time 6 h"}, "[12]": {"conditions": "wild type E. coli NCM3722, growth: P-lim chemostat, doubling time 12 h"}}, "note": "± gives the standard deviation of the averaged measurements.", "data": [{"sequence": "MKVLVIGNGGREHALAWKAAQSPLVETVFVAPGNAGTALEPALQNVAIGVTDIPALLDFAQNEKIDLTIVGPEAPLVKGVVDTFRAAGLKIFGPTAGAAQLEGSKAFTKDFLARHKIPTAEYQNFTEVEPALAYLREKGAPIVIKADGLAAGKGVIVAMTLEEAEAAVHDMLAGNAFGDAGHRIVIEEFLDGEEASFIVMVDGEHVLPMATSQDHKRVGDKDTGPNTGGMGAYSPAPVVTDDVHQRTMERIIWPTVKGMAAEGNTYTGFLYAGLMIDKQGNPKVIEFNCRFGDPETQPIMLRMKSDLVELCLAACESKLDEKTSEWDERASLGVVMAAGGYPGDYRTGDVIHGLPLEEVAGGKVFHAGTKLADDEQVVTNGGRVLCVTALGHTVAEAQKRAYALMTDIHWDDCFCRKDIGWRAIEREQN", "values": [{"measurement": "total protein half-life in vivo", "setting": "[1]", "result": "5.13 ± 0.32", "unit": "h"}, {"measurement": "total protein half-life in vivo", "setting": "[2]", "result": "4.89 ± 0.38", "unit": "h"}, {"measurement": "total protein half-life in vivo", "setting": "[3]", "result": "4.3 ± 0.28", "unit": "h"}, {"measurement": "total protein half-life in vivo", "setting": "[4]", "result": "4.91 ± 0.24", "unit": "h"}, {"measurement": "total protein half-life in vivo", "setting": "[5]", "result": "4.44 ± 0.17", "unit": "h"}, {"measurement": "total protein half-life in vivo", "setting": "[6]", "result": "3.38 ± 0.24", "unit": "h"}, {"measurement": "total protein half-life in vivo", "setting": "[7]", "result": "6.37 ± 0.4", "unit": "h"}, {"measurement": "total protein half-life in vivo", "setting": "[8]", "result": "10.5 ± 0.14", "unit": "h"}, {"measurement": "total protein half-life in vivo", "setting": "[9]", "result": "4.62 ± 0.25", "unit": "h"}, {"measurement": "total protein half-life in vivo", "setting": "[10]", "result": "7.03 ± 0.35", "unit": "h"}, {"measurement": "total protein half-life in vivo", "setting": "[11]", "result": "6.097 ± 0.048", "unit": "h"}, {"measurement": "total protein half-life in vivo", "setting": "[12]", "result": "12.7 ± 0.7", "unit": "h"}]}, {"sequence": "MNINVAELLNGNYILLLFVVLALGLCLGKLRLGSIQLGNSIGVLVVSLLLGQQHFSINTDALNLGFMLFIFCVGVEAGPNFFSIFFRDGKNYLMLALVMVGSALVIALGLGKLFGWDIGLTAGMLAGSMTSTPVLVGAGDTLRHSGMESRQLSLALDNLSLGYALTYLIGLVSLIVGARYLPKLQHQDLQTSAQQIARERGLDTDANRKVYLPVIRAYRVGPELVAWTDGKNLRELGIYRQTGCYIERIRRNGILANPDGDAVLQMGDEIALVGYPDAHARLDPSFRNGKEVFDRDLLDMRIVTEEVVVKNHNAVGKRLAQLKLTDHGCFLNRVIRSQIEMPIDDNVVLNKGDVLQVSGDARRVKTIADRIGFISIHSQVTDLLAFCAFFVIGLMIGMITFQFSTFSFGMGNAAGLLFAGIMLGFMRANHPTFGYIPQGALSMVKEFGLMVFMAGVGLSAGSGINNGLGAIGGQMLIAGLIVSLVPVVICFLFGAYVLRMNRALLFGAMMGARTCAPAMEIISDTARSNIPALGYAGTYAIANVLLTLAGTIIVMVWPGLG", "values": [{"measurement": "total protein half-life in vivo", "setting": "[1]", "result": "6.56 ± 0.66", "unit": "h"}, {"measurement": "total protein half-life in vivo", "setting": "[2]", "result": "6.38 ± 1", "unit": "h"}, {"measurement": "total protein half-life in vivo", "setting": "[5]", "result": "6.19 ± 0.91", "unit": "h"}, {"measurement": "total protein half-life in vivo", "setting": "[7]", "result": "7.06 ± 0.39", "unit": "h"}, {"measurement": "total protein half-life in vivo", "setting": "[9]", "result": "6.17 ± 0.47", "unit": "h"}, {"measurement": "total protein half-life in vivo", "setting": "[11]", "result": "7.316 ± 0.023", "unit": "h"}, {"measurement": "total protein half-life in vivo", "setting": "[12]", "result": "12 ± 2.5", "unit": "h"}]}, {"sequence": "MAEFETTFADLGLKAPILEALNDLGYEKPSPIQAECIPHLLNGRDVLGMAQTGSGKTAAFSLPLLQNLDPELKAPQILVLAPTRELAVQVAEAMTDFSKHMRGVNVVALYGGQRYDVQLRALRQGPQIVVGTPGRLLDHLKRGTLDLSKLSGLVLDEADEMLRMGFIEDVETIMAQIPEGHQTALFSATMPEAIRRITRRFMKEPQEVRIQSSVTTRPDISQSYWTVWGMRKNEALVRFLEAEDFDAAIIFVRTKNATLEVAEALERNGYNSAALNGDMNQALREQTLERLKDGRLDILIATDVAARGLDVERISLVVNYDIPMDSESYVHRIGRTGRAGRAGRALLFVENRERRLLRNIERTMKLTIPEVELPNAELLGKRRLEKFAAKVQQQLESSDLDQYRALLSKIQPTAEGEELDLETLAAALLKMAQGERTLIVPPDAPMRPKREFRDRDDRGPRDRNDRGPRGDREDRPRRERRDVGDMQLYRIEVGRDDGVEVRHIVGAIANEGDISSRYIGNIKLFASHSTIELPKGMPGEVLQHFTRTRILNKPMNMQLLGDAQPHTGGERRGGGRGFGGERREGGRNFSGERREGGRGDGRRFSGERREGRAPRRDDSTGRRRFGGDA [P0A9P6]", "values": [{"measurement": "total protein half-life in vivo", "setting": "[1]", "result": "5.66 ± 0.077", "unit": "h"}, {"measurement": "total protein half-life in vivo", "setting": "[2]", "result": "0.972 ± 0.029", "unit": "h"}, {"measurement": "total protein half-life in vivo", "setting": "[3]", "result": "0.567 ± 0.1", "unit": "h"}, {"measurement": "total protein half-life in vivo", "setting": "[4]", "result": "4.78 ± 0.32", "unit": "h"}, {"measurement": "total protein half-life in vivo", "setting": "[5]", "result": "0.849 ± 0.089", "unit": "h"}, {"measurement": "total protein half-life in vivo", "setting": "[6]", "result": "1.4 ± 0.34", "unit": "h"}, {"measurement": "total protein half-life in vivo", "setting": "[7]", "result": "1.34 ± 0.29", "unit": "h"}, {"measurement": "total protein half-life in vivo", "setting": "[8]", "result": "1.19 ± 0.17", "unit": "h"}, {"measurement": "total protein half-life in vivo", "setting": "[9]", "result": "2.26 ± 2", "unit": "h"}, {"measurement": "total protein half-life in vivo", "setting": "[10]", "result": "0.902 ± 0.095", "unit": "h"}, {"measurement": "total protein half-life in vivo", "setting": "[11]", "result": "0.635 ± 0.37", "unit": "h"}, {"measurement": "total protein half-life in vivo", "setting": "[12]", "result": "0.864 ± 0.3", "unit": "h"}]}, {"sequence": "MQESIQLVIDSLPFLLKGAGYTLQLSIGGMFFGLLLGFILALMRLSPIWPVRWLARFYISIFRGTPLIAQLFMIYYGLPQFGIELDPIPSAMIGLSLNTAAYAAETLRAAISSIDKGQWEAAASIGMTPWQTMRRAILPQAARVALPPLSNSFISLVKDTSLAATIQVPELFRQAQLITSRTLEVFTMYLAASLIYWIMATVLSTLQNHFENQLNRQEREPK [P0AFT2]", "values": [{"measurement": "total protein half-life in vivo", "setting": "[2]", "result": 7.13, "unit": "h"}, {"measurement": "total protein half-life in vivo", "setting": "[3]", "result": 7.23, "unit": "h"}, {"measurement": "total protein half-life in vivo", "setting": "[6]", "result": 3.14, "unit": "h"}, {"measurement": "total protein half-life in vivo", "setting": "[7]", "result": "5.37 ± 0.3", "unit": "h"}, {"measurement": "total protein half-life in vivo", "setting": "[8]", "result": "15.7 ± 0.28", "unit": "h"}, {"measurement": "total protein half-life in vivo", "setting": "[9]", "result": "6.07 ± 0.14", "unit": "h"}, {"measurement": "total protein half-life in vivo", "setting": "[10]", "result": "11.2 ± 4.2", "unit": "h"}, {"measurement": "total protein half-life in vivo", "setting": "[11]", "result": "6 ± 0.41", "unit": "h"}, {"measurement": "total protein half-life in vivo", "setting": "[12]", "result": "11.9 ± 0.19", "unit": "h"}]}, {"sequence": "MEISFTRVALLAAALFFVGCDQKPQPAKTHATEVTVLEGKTMGTFWRASIPGIDAKRSAELKEKIQTQLDADDQLLSTYKKDSALMRFNDSQSLSPWPVSEAMADIVTTSLRIGAKTDGAMDITVGPLVNLWGFGPEQQPVQIPSQEQIDAMKAKTGLQHLTVINQSHQQYLQKDLPDLYVDLSTVGEGYAADHLARLMEQEGISRYLVSVGGALNSRGMNGEGLPWRVAIQKPTDKENAVQAVVDINGHGISTSGSYRNYYELDGKRLSHVIDPQTGRPIEHNLVSVTVIAPTALEADAWDTGLMVLGPEKAKEVVRREGLAVYMITKEGDSFKTWMSPQFKSFLVSEKN [P0AB85]", "values": [{"measurement": "total protein half-life in vivo", "setting": "[1]", "result": "6.34 ± 0.12", "unit": "h"}, {"measurement": "total protein half-life in vivo", "setting": "[2]", "result": "6.53 ± 0.012", "unit": "h"}, {"measurement": "total protein half-life in vivo", "setting": "[3]", "result": "5.8 ± 0.66", "unit": "h"}, {"measurement": "total protein half-life in vivo", "setting": "[4]", "result": "6.9 ± 0.33", "unit": "h"}, {"measurement": "total protein half-life in vivo", "setting": "[5]", "result": "5.97 ± 0.26", "unit": "h"}, {"measurement": "total protein half-life in vivo", "setting": "[6]", "result": "2.9 ± 0.21", "unit": "h"}, {"measurement": "total protein half-life in vivo", "setting": "[7]", "result": "6.95 ± 0.84", "unit": "h"}, {"measurement": "total protein half-life in vivo", "setting": "[8]", "result": "11.9 ± 0.74", "unit": "h"}, {"measurement": "total protein half-life in vivo", "setting": "[9]", "result": "6.29 ± 0.19", "unit": "h"}, {"measurement": "total protein half-life in vivo", "setting": "[10]", "result": "12.3 ± 1.8", "unit": "h"}, {"measurement": "total protein half-life in vivo", "setting": "[11]", "result": "6.3 ± 1.1", "unit": "h"}, {"measurement": "total protein half-life in vivo", "setting": "[12]", "result": "13.4 ± 0.18", "unit": "h"}]}, {"sequence": "MTALALFDLLKPNYALATQVEFTDPEIVAEYITYPSPNGHGEVRGYLVKPAKMSGKTPAVVVVHENRGLNPYIEDVARRVAKAGYIALAPDGLSSVGGYPGNDDKGRELQQQVDPTN [Q7DFU6]", "values": [{"measurement": "total protein half-life in vivo", "setting": "[1]", "result": 2.25, "unit": "h"}]}, {"sequence": "MVSNASALGRNGVHDFILVRATAIVLTLYIIYMVGFFATSGELTYEVWIGFFASAFTKVFTLLALFSILIHAWIGMWQVLTDYVKPLALRLMLQLVIVVALVVYVIYGFVVVWGV [P0AC44]", "values": [{"measurement": "total protein half-life in vivo", "setting": "[3]", "result": "6.12 ± 0.19", "unit": "h"}, {"measurement": "total protein half-life in vivo", "setting": "[6]", "result": "3.03 ± 0.042", "unit": "h"}, {"measurement": "total protein half-life in vivo", "setting": "[7]", "result": "6.01 ± 0.4", "unit": "h"}, {"measurement": "total protein half-life in vivo", "setting": "[8]", "result": "12 ± 4.5", "unit": "h"}, {"measurement": "total protein half-life in vivo", "setting": "[9]", "result": "5.87 ± 0.39", "unit": "h"}, {"measurement": "total protein half-life in vivo", "setting": "[12]", "result": 12.5, "unit": "h"}]}]}
